Measured values: patent US20210087289A1
One block for each binder: values may come before it.

Tests used:
[1] = molecular target: human CD44v6 (CD44 variant containing exon v6), as expressed on PC9 cells and in human tissues (human), P16070; assay: cell-based or functional assay
[2] = molecular target: human CD44v9 (CD44 variant containing exon v9), as expressed on PC9 cells and in human tissues (human) (UniProt P16070); assay: cell-based or functional assay
[3] = molecular target: human CD44v9 (CD44 variant containing exon v9), as expressed on PC9 cells and in human tissues (human) (UniProt P16070); assay: FACS titration on PC9 cells (30000 pM to 0.1 pM, 3 fold serial dilution), Alexa488 anti-mouse IgG, MFI

Sequence of UniProt P16070 (P16070 21-742, change not shown): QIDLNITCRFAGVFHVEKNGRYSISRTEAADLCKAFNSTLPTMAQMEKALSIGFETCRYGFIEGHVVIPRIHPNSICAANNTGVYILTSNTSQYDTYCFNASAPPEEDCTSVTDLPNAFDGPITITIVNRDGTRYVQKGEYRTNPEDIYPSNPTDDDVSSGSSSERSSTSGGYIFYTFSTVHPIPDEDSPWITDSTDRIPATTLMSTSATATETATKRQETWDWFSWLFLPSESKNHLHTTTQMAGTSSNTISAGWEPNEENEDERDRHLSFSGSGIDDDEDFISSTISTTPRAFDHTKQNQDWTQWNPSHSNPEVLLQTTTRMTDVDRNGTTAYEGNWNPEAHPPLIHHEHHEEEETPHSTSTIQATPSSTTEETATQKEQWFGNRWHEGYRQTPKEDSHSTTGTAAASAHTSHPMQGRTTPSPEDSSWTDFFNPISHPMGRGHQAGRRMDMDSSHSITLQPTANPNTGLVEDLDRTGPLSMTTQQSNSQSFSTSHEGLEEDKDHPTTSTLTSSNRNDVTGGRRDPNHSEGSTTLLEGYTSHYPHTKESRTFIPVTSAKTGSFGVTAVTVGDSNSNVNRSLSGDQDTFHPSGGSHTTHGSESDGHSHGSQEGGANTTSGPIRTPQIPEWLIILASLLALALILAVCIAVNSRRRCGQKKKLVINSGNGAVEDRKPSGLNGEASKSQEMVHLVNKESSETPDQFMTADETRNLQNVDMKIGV

B1: mAb119-ADC (AMT119), mAb119 conjugated with MC-vc-PAB-MMAE (protein)
VH: EVQLQESGPELKKPGETVKISCKASGYIFTNYGMNWVKQAPGKGLKWMGWINTYTGEPTYADDFKGRFAFSLETSASTAYLQINNLKNEDTATYFCARTDYYGSSYWYFDVWGAGTTVTVSS
VL: DIQMTQTTSSLSASLGDRVTITCSASQGISNYLNWYQQKPDGTVKLLIFYTSTLPSGVPSRFSGSGSGTDYSLTIRNLEPEDFATYCCQQYSKFPYTFGGGTKLEIK
modifications: here or on the partner: MC-vc-PAB-MMAE conjugated to the antibody (average DAR about 6); attachment residues and chain not stated
IC50 of cytotoxicity (growth inhibition) in PC9 cells [1]: 2.6 nM
IC50 of cytotoxicity (growth inhibition) in TE1 cells [1]: 39 nM

Kd [3]: 0.98 nM
B2: anti-CD44v9 monoclonal antibody mAb116 (antibody, V domains shown)
VH: QVQLQQSGAELVKPGASVKLSCTASGFNIKDTYMHWVKQRPEQGLEWIGRIDPANGNTKYDPKFQGKATITADTSSNTAYLQLSSLTSEDTAVYYCASRGEGTGFAYWGLGTLVTVSA
VL: DIVMTQSAPSVPVTPGESVSISCRSSKSLLHSNGNTYLYWFLQRPGQSPQLLIHRMSNLASGVPDRFSGSGSGTAFTLRISRVEAEDVGVYYCMQHLEYPFTFGGGTKLEIK
IC50 of PC9 growth inhibition (indirect cytotoxicity, mAb116 with 2 µg/mL MMAE-conjugated goat anti mouse IgG, 72 hrs, CCK8) [2]: 0.03 nM
